Experimental data taken from IntAct's records for PubMed 21057110.

B1: Arf-GAP with dual PH domain-containing protein 1 (Homo sapiens), O75689 (parent)
chain: MAKERRRAVLELLQRPGNARCADCGAPDPDWASYTLGVFICLSCSGIHRNIPQVSKVKSVRLDAWEEAQVEFMASHGNDAARARFESKVPSFYYRPTPSDCQLLREQWIRAKYERQEFIYPEKQEPYSAGYREGFLWKRGRDNGQFLSRKFVLTEREGALKYFNRNDAKEPKAVMKIEHLNATFQPAKIGHPHGLQVTYLKDNSTRNIFIYHEDGKEIVDWFNALRAARFHYLQVAFPGAGDADLVPKLSRNYLKEGYMEKTGPKQTEGFRKRWFTMDDRRLMYFKDPLDAFARGEVFIGSKESGYTVLHGFPPSTQGHHWPHGITIVTPDRKFLFACETESDQREWVAAFQKAVDRPMLPQEYAVEAHFKHKP

Variants of: B1
Conditions: with ki13b_human KIF13B

Row | effect of a mutation on the interaction | Variant
1 | disrupting interaction strength | Y211G
2 | disrupting interaction strength | Y211R
